Among the data in paper PMC4346919 are FW signal relative to that for Sec31A (of the signal for Sec31A) and relative binding activity (percent of WT) values, retold here.

Among the targets are GST-8 aa-fusion of SET1B; GST-8 aa-fusion of CHERP; GST-8 aa-fusion of RBM22.
Holding throughout (test): far-Western, overlay or dot blot; purified GST-fused peptides resolved by SDS-PAGE, transferred to PVDF membranes and probed with biotin-labeled ALG-2; chemiluminescence, quantified with ImageJ
In assay [1] the target is substitution of Pro with Ala at position 2, 4 or 5 (P2A, P4A or P5A) or substitution of Pro5 with Leu (P5L).

biotin-labeled ALG-2, sequence (O75340 whole entry): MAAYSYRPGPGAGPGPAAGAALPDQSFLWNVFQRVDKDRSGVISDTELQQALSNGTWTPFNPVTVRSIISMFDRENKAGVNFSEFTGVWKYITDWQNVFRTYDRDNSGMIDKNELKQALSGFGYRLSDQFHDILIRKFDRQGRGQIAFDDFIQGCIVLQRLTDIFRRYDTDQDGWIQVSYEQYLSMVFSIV

Regarding “biotin-labeled ALG-2 (from UniProt O75340 1-191) (natural protein)”, the FW signal relative to that for Sec31A (of the signal for Sec31A) with GST-8 aa-fusion of SET1B, with GST-8 aa-fusion of CHERP and with GST-8 aa-fusion of RBM22 was under 0.0625 each time. Further, in assay [1], the relative binding activity (percent of WT) is 40 to 75 % of WT.
